Each block holds one molecule with its values, some of them ahead of it.
Key:
Human heart chymase = molecular target: T1, Human heart chymase (Homo sapiens, UniProt P23946); test: Measurement of chymase inhibitory activity; format: biochemical; conditions: purified human heart chymase, substrate Suc-Ala-Ala-Pro-Phe-MCA, 30° C.
T1 construct: Human heart chymase was purified according to the method of Urata et al; from tissue; host or cells: human heart
T1 sequence (P23946 22-247): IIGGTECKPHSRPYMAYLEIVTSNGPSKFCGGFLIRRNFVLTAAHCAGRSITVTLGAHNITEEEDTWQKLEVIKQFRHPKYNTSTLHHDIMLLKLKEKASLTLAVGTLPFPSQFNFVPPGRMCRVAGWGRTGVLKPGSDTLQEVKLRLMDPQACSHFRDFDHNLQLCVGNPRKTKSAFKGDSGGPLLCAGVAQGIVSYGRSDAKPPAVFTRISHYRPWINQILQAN
Method: Human heart chymase was purified according to the method of Urata et al. (J. Biol. Chem., 1990, 265, 22348). The inhibitory activity of the quinazoline derivatives of the present invention with respect to chymase was measured in the following manner. That is, the purified enzyme solution was diluted to a suitable concentration with 0.1M tris-hydrochloride buffer (pH=7.5), 1M sodium chloride, and 0.01% TritonX-100 to obtain an enzyme solution. A 10 mM dimethyl sulfoxide (hereinafter referred to as DMSO) solution of Suc-Ala-Ala-Pro-Phe-MCA (Peptide Institute) was diluted 20-fold at the time of use by 0.1M tris-hydrochlorate, 1M sodium chloride, and 0.01% TritonX-100 to obtain the substrate solution.
75 μl of the enzyme solution warmed to 30° C. was mixed with 5 μl of DMSO solution of the test sample. The mixture was preincubated at 30° C. for 10 minutes. Next, 20 μl of a substrate solution warmed to 30° C. was mixed with the test sample-enzyme mixture and incubated at 30° C. After 10 minutes, 50 μl of 30% acetic acid was added to stop the enzymatic reaction. The amount of the AMC produced was quantified using a fluorescent photometer. At the same time, a blind test was carried out by adding, instead of the test sample solution, 5 μl of DMSO and performing the same reaction. […]

eosinophils of the skin = test: Administration of human chymase to mouse ears, number of eosinophils of skin; format: in vivo, mice; conditions: p<0.01
Method: The effect of a chymase inhibitor on the infiltration of eosinophils of the skin in the test of Example 10 was studied. That is, 48 hours after the sixth application of hapten, the ears of the mice were fixed with formalin and paraffin sections prepared in accordance with an ordinary method. The sections were stained with Fast Green (Fluka), known to specifically stain eosinophils (Current Protocol in Immunology, Wiley Interscience). That is, the deparaffined sections were fixed with 100% methanol for 1 minute, then stained for 30 minutes by 0.2% Fast Green dissolved in 70% ethanol. The eosinophils were measured by randomly selecting 10 fields (×400) under a microscope and counting the number of cells per area using an ocular grid. As the chymase inhibitor, the Compound 18 and Compound 34 were used and =administered by the method described in Example 10. […] The thickness of the ear was measured by a micrometer (Digimatic Indicator, Mitsutoyo Co.) immediately before each administration of chymase and 1 hour, 6 hours, 24 hours, and 48 hours after the administration to find the increase from the ear thickness before the first administration of chymase. […] The number of eosinophils of the skin was measured by the method described in Example 11. […]

[1] = tested on: human polymorphonuclear leukocytes (PMN); test: Human chymase-induced migration of polymorphonuclear leukocytes, 48-well chemotaxis chamber; format: cell-based
Method: In Example 6, it was shown that a remarkable infiltration of leukocytes is observed in late-phase reaction of human chymase-induced dermatitis. The effect of human chymase on the migration of polymorphonuclear leukocytes (PMN) in vitro was investigated for the purpose of investigating the mechanism of chymase-induced leukocyte infiltration. PMN was isolated by adding a ⅕th volume of 6% dextran solution to heparinized whole blood from normal healthy subject and allowing it to stand at 37° C. for 1 hour, then layering the supernatent on Ficoll-Paque (Amersham Pharmacia Biotech) and centrifuging it. Further, the migration of PMN was measured by using a 48-well chemotaxis chamber (NeuroProbe Co.) by the textbook method (Seibutsu Yakkagaku Jikken Koza (Biopharmacology Experiment Lectures) 12, 315, Hirokawa Shoten). That is, a medium containing human chymase (200 to 800 nM) or fMLP (N-formyl-L-methionyl-L-leucyl-L-phenylalanine, Sigma-Aldrich Co.) (10 nM) was placed in the lower well of the chamber. The upper well and the lower well were separated by a polycarbonate filter (pore size 5 μm) (NeuroProbe Co.) PMN (1×10^6/ml) was added to the upper well and cultured at 37° C. for 1 hour, then the filter was fixed, stained and the number of cells in the membrane were counted under a microscope (400×) (Seibutsu Yakkagaku Jikken Koza (Biopharmacology Experiment Lectures) 12, 315). For the cell staining, a hemacolor solution (Merck) was used. In this test, when investigating the effect of the chymase inhibitor, a chymase inhibitor (Compound 18 or Compound 34) was dissolved in dimethyl sulfoxide and added to the lower well of the chamber just before the addition of the human chymase. The concentration of the compound was adjusted so that the final concentration of the dimethyl sulfoxide became 1%.

IC50 (Human heart chymase): 300 nM
Molecule: CC(C(=O)O)C(=O)Nc1cccc(S(=O)(=O)n2c(=O)[nH]c3cc(Cl)ccc3c2=O)c1 (centres unmarked) [Compound 13, 2-{3-[(7-chloro-2,4(1H, 3H) -quinazolinedion-3-yl)sulfonyl]phenylaminocarbonyl}propionic Acid]

increase in number of eosinophils compared with ear administered saline (eosinophils of the skin; 24 hours after single intradermal administration of 2.0 μg): approximately 7.6 fold
increase in number of eosinophils compared with group administered saline (eosinophils of the skin; administered at 1 week intervals four times in total, 1 week after administration): about 21 fold
migration-promoting activity relative to fMLP ([1]; 200 to 400 nM chymase equals 10 nM fMLP): about 1/30
concentration at which promotion of human PMN migration is statistically significant ([1]; chymase 200 to 800 nM in lower well, p<0.05 Dunnett's test): ≥ 400 nM
B1: human chymase: recombinant human mature chymase expressed in CHO dhfr- cells, purified; serine protease of mast cells (protein, UniProt P23946 22-247, looked up)
Chymase: T1 sequence (P23946 22-247)

Reference: patent publication US7618977B2, “Method of treating dermatitis comprising administering a chymase inhibitor” (Asubio Pharma Co., Ltd., priority 2000, dated 2009)
